Here are results for two substances from US10564159.

Experiment [1] addresses chimeric hTSH/rLH-R receptor (RMc4), displayed on CHO-RMc4luc cells (human TSH receptor with a segment of rat LH receptor). Nature of the experiment: cell-based or functional assay.
Experiment [2] deals with human TSH receptor (wild type), displayed on CHO-Rluc cells (human) (UniProt P16473). Nature of the experiment: cell-based or functional assay.

In the case of “human follicle stimulating hormone (from UniProt P01215 25-116; P01225 19-129) (ligand)”, in experiment [1], the Ratio of Signal/Negative, luciferase reporter, FSH 364 mIU/ml on CHO-Mc4luc cells came out at 0.6 and the luciferase RLU, FSH 364 mIU/ml on CHO-RMc4luc cells is 1020 RLU. Besides, in experiment [2], the Ratio of Signal/Negative, luciferase reporter, FSH 364 mIU/ml on CHO-Rluc cells was found to be 0.7 and the luciferase RLU, FSH 364 mIU/ml on CHO-Rluc cells is 728 RLU.
For “human luteinizing hormone (from UniProt P01215 25-116; P01229 21-141) (ligand)”, in experiment [1], the Ratio of Signal/Negative, luciferase reporter, LH 455 mIU/ml on CHO-Mc4luc cells is 0.9 and the luciferase RLU, LH 455 mIU/ml on CHO-RMc4luc cells amounted to 1560 RLU. For the same substance, in experiment [2], the Ratio of Signal/Negative, luciferase reporter, LH 455 mIU/ml on CHO-Rluc cells stood at 0.8 and the luciferase RLU, LH 455 mIU/ml on CHO-Rluc cells came out at 835 RLU.
